Experimental data: patent US20230301998A1 (SANFORD BURNHAM PREBYS MEDICAL DISCOVERY INSTITUTE, published 2023)

Columns and labels:
HSPA5 = biological target: T1, HSPA5 (human, UniProt P11021 19-654); assay: Flag IP of Flag-SHARPIN from WM115 lysate, on-bead tryptic digestion, LC/MS-MS
T1 construct: endogenous protein co-purified from WM115 lysate
Procedure, shortened: (§1)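 WM115 cells transfected with Flag-SHARPIN or empty plasmid; lysed in 1% Triton X-100 buffer (50 mM Tris-HCl pH7.4, 150 mM NaCl, 1 mM EDTA). Lysates pre-cleared 1 h at 4° C, immunoprecipitated on FLAG-M2 agarose overnight at 4° C, washed, then digested with trypsin on-bead for mass spectrometry.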

PFKFB3 = biological target: T2, PFKFB3 (human, UniProt Q16875 1-520, limits assumed); assay: as above
T2 construct: endogenous protein co-purified from WM115 lysate
Procedure, shortened: as §1

XRCC6 = biological target: T3, XRCC6 (human, UniProt P12956 2-609); assay: as above
T3 construct: endogenous protein co-purified from WM115 lysate
Procedure, shortened: as §1

PNKP = biological target: T4, PNKP (human, UniProt Q96T60 1-521); assay: as above
T4 construct: endogenous protein co-purified from WM115 lysate
Procedure, shortened: as §1

PRPF31 = biological target: T5, PRPF31 (human, UniProt Q8WWY3 1-499); assay: as above
T5 sequence (looked up): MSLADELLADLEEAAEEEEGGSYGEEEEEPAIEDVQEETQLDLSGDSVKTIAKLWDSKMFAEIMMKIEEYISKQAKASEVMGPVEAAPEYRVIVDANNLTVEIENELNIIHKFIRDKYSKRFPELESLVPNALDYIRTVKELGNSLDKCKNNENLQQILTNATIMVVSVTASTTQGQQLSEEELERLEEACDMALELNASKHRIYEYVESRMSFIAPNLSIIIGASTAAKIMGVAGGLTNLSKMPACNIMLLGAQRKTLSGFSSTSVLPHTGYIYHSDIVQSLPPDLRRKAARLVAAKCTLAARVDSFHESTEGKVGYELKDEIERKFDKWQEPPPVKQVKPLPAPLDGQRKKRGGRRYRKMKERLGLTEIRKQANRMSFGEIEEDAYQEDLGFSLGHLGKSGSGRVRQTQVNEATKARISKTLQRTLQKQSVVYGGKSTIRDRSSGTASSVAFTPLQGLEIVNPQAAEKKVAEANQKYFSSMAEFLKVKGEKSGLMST
Procedure, shortened: as §1

ATP5B = biological target: T6, ATP5B (human, UniProt P06576 48-529); assay: as above
T6 construct: endogenous protein co-purified from WM115 lysate
Procedure, shortened: as §1

HSPA8 = biological target: T7, HSPA8 (human, UniProt P11142 2-646); assay: as above
T7 construct: endogenous protein co-purified from WM115 lysate
Procedure, shortened: as §1

VIM = biological target: T8, VIM (human, UniProt P08670 2-466); assay: as above
T8 construct: endogenous protein co-purified from WM115 lysate
Procedure, shortened: as §1

PKM = biological target: T9, PKM (human, UniProt P14618 2-531, limits assumed); assay: as above
T9 construct: endogenous protein co-purified from WM115 lysate
Procedure, shortened: as §1

HSPD1 = biological target: T10, HSPD1 (human, UniProt P10809 27-573); assay: as above
T10 construct: endogenous protein co-purified from WM115 lysate
Procedure, shortened: as §1

[1] = biological target: T11, Interferon-activable protein 204 (Mus musculus) (IFI204) (Mus musculus, UniProt P0DOV2 1-619); assay: Flag IP and immunoblot of transfected HEK293T lysates
T11 construct: also called IF204
T11 sequence: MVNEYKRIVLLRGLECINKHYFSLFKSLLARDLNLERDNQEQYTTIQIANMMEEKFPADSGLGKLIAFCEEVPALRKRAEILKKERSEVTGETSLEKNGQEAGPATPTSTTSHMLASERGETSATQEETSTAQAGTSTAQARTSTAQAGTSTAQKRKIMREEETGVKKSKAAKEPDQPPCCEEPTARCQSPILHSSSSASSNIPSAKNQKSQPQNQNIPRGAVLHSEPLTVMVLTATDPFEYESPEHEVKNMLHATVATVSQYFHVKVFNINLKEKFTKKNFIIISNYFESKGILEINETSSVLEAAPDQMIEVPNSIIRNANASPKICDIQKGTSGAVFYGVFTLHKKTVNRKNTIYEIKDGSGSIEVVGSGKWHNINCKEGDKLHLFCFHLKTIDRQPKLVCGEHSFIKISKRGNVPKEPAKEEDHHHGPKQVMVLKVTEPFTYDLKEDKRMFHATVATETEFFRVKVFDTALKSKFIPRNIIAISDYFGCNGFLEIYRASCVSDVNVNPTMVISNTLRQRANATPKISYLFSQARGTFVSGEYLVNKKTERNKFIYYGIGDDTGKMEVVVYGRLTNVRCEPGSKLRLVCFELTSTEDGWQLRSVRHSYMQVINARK

T10 sequence (P10809 27-573 limits assumed): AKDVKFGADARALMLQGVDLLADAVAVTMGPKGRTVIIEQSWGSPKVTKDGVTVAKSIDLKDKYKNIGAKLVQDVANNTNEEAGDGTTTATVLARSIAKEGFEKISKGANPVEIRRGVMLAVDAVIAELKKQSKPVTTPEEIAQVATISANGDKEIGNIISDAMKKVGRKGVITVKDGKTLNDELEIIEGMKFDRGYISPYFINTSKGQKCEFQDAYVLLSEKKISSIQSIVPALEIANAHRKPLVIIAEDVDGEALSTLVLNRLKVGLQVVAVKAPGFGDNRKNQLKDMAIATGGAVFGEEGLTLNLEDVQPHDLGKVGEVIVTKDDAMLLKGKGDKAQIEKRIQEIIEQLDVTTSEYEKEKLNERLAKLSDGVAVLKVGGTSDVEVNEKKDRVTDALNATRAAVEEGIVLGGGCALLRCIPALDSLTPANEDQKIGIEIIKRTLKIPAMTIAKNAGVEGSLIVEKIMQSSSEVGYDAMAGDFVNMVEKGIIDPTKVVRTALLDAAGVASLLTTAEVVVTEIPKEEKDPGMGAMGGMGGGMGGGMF
T2 sequence (Q16875 whole entry): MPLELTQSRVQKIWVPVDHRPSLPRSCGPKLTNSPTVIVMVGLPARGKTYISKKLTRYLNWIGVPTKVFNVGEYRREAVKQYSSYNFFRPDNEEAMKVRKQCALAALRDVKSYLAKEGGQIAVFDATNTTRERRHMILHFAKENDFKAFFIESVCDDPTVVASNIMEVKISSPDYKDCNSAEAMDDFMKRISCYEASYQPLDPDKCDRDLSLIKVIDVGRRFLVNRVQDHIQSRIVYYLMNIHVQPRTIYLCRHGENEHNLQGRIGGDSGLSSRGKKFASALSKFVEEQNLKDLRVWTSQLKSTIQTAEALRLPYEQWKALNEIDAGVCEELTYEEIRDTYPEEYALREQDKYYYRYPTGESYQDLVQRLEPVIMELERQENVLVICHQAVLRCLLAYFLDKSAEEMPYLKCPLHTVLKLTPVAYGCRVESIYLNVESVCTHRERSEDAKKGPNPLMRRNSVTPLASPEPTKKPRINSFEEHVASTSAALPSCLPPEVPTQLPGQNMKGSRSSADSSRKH
T9 sequence (P14618 2-531 limits assumed): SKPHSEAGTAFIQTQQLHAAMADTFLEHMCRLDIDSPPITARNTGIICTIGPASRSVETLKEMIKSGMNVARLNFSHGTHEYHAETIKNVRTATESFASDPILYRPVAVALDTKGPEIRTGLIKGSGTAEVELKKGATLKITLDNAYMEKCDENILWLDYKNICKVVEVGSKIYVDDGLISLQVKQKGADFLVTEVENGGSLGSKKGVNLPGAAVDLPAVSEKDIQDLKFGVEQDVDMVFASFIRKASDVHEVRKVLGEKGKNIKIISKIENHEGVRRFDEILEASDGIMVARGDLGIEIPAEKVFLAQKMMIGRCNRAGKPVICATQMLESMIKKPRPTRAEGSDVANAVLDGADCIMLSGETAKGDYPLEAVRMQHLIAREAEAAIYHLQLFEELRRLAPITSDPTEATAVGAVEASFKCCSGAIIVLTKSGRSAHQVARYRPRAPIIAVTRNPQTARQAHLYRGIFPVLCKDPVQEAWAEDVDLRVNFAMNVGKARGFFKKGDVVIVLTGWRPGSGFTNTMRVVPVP
T7 sequence (P11142 2-646 limits assumed): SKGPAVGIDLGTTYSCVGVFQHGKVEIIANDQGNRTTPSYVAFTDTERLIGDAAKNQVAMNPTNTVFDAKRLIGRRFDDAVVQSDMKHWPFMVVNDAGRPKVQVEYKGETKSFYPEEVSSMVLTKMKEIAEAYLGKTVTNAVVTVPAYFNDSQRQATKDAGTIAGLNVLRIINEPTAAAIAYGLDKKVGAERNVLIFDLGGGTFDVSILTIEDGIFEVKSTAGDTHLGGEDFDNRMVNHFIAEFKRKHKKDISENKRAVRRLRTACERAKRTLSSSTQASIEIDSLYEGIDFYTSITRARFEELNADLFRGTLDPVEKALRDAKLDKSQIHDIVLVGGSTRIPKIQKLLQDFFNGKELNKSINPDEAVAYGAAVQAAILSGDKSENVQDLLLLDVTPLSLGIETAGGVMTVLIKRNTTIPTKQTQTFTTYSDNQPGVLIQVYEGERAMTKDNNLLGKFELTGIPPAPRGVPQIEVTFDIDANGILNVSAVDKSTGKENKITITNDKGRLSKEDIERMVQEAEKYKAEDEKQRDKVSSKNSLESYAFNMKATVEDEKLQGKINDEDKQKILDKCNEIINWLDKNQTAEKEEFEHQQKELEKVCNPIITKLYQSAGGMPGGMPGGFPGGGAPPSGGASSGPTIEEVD
T1 sequence (P11021 19-654 limits assumed): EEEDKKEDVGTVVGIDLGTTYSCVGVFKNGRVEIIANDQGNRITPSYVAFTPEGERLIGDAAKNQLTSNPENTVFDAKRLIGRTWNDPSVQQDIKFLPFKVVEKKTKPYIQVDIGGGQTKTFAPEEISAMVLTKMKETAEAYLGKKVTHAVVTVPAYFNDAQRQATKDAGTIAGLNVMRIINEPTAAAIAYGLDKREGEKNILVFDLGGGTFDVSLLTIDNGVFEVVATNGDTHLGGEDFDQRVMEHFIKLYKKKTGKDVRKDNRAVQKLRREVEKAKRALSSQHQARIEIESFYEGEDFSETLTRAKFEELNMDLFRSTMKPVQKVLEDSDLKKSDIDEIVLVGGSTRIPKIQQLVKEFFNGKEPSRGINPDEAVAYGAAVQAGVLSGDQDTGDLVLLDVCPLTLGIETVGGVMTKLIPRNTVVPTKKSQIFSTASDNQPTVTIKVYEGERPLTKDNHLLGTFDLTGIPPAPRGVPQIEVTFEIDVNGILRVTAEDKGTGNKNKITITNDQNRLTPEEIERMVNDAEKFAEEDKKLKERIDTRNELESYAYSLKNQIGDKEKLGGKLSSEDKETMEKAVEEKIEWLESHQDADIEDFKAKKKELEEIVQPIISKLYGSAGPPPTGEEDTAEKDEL
T3 sequence (P12956 2-609 limits assumed): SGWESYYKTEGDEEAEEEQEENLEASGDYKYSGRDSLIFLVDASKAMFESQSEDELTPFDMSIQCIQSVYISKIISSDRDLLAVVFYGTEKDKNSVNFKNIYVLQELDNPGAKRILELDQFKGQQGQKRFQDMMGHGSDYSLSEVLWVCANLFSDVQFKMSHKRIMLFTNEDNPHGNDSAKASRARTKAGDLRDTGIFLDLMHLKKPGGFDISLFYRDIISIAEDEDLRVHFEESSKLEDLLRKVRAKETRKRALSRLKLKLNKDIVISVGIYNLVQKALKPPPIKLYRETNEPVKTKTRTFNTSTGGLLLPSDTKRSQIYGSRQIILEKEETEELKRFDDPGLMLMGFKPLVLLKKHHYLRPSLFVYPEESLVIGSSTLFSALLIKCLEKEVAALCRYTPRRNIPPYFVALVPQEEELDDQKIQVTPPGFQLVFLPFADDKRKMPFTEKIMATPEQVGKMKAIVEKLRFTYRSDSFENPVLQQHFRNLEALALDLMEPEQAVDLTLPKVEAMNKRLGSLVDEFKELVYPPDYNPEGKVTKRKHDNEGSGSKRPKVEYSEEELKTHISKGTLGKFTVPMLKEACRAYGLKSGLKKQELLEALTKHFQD
T6 sequence (P06576 48-529 limits assumed): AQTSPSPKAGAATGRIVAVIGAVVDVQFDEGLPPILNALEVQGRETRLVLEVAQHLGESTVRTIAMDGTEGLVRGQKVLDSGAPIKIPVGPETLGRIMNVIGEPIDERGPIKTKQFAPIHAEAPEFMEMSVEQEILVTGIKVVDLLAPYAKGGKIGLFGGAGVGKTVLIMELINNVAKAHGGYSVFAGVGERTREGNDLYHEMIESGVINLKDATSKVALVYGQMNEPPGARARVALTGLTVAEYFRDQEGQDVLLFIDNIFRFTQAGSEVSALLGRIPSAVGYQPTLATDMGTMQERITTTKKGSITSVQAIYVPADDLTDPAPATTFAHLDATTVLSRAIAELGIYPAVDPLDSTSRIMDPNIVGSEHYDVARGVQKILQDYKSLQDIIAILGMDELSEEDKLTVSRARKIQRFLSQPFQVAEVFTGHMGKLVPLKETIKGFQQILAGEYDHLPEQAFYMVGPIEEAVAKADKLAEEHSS
T8 sequence (P08670 2-466 limits assumed): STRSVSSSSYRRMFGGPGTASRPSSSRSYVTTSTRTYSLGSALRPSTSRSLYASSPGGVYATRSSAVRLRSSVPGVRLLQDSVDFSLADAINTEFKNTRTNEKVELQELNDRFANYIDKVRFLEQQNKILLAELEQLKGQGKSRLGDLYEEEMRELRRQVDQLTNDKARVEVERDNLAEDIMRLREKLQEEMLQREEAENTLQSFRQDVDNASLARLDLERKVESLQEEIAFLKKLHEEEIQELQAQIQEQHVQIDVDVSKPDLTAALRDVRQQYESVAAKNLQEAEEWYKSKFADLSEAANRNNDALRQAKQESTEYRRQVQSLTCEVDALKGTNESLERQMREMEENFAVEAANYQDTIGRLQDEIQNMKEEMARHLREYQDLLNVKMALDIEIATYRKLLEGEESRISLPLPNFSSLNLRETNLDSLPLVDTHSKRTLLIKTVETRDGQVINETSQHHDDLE

binding result (HSPA5): binds | binding result (PFKFB3): binds | binding result (XRCC6): binds | binding result (PNKP): binds | binding result (PRPF31): binds | binding result (ATP5B): binds | binding result (HSPA8): binds | binding result (VIM): binds | binding result (PKM): binds | binding result (HSPD1): binds | binding result [1]: binds
B1: Flag-tagged SHARPIN (other, human, UniProt Q9H0F6 1-387, looked up)
chain: MAPPAGGAAAAASDLGSAAVLLAVHAAVRPLGAGPDAEAQLRRLQLSADPERPGRFRLELLGAGPGAVNLEWPLESVSYTIRGPTQHELQPPPGGPGTLSLHFLNPQEAQRWAVLVRGATVEGQNGSKSNSPPALGPEACPVSLPSPPEASTLKGPPPEADLPRSPGNLTEREELAGSLARAIAGGDEKGAAQVAAVLAQHRVALSVQLQEACFPPGPIRLQVTLEDAASAASAASSAHVALQVHPHCTVAALQEQVFSELGFPPAVQRWVIGRCLCVPERSLASYGVRQDGDPAFLYLLSAPREAPATGPSPQHPQKMDGELGRLFPPSLGLPPGPQPAASSLPSPLQPSWSCPSCTFINAPDRPGCEMCSTQRPCTWDPLAAAST
notes: also called Flag-SHARPIN; not shown: FLAG tag
